The values below are quoted from earlier work in publication PMC12192639.

The target of series [1] is SSB C-terminal peptide last eight amino acids (Escherichia coli) (UniProt P0AGE0).
In a further series the target is RecO (Escherichia coli) (UniProt B1XB39).

Chain of UniProt P0AGE0 (P0AGE0 whole entry, looked up): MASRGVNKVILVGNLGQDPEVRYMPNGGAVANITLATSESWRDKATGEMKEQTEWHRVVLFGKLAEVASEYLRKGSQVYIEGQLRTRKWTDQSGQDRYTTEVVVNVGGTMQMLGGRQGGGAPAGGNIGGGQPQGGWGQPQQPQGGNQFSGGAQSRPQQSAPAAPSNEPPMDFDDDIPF

Broadly, the Kd is the free concentration of one partner at which half of the binding sites on the other are occupied at equilibrium, for simple one-to-one binding. In the case of RecO (from UniProt B1XB39), in series [1], the Kd is 150 nM.

Consider RecR (from UniProt C4ZUS6), for which the Kd with RecO (Escherichia coli) is 126 nM.
